Assays:
Settings in all cases: protein: recombinant; tags: 6xHis (pET-28a(+))
GhWRKY27 [1] = biological target: T1, GhWRKY27 (Gossypium hirsutum (CCRI74), UniProt A0A068LI73 1-355); test: EMSA; self-competition; supershift with anti-GhWRKY27; LightShift Chemiluminescent EMSA Kit (Thermo), manufacturer's instructions; buffer, salt, pH and temperature not stated
GhWRKY27 [2] = biological target: T1, GhWRKY27; test: EMSA; self-competition abolishes band; supershift with anti-GhWRKY27; LightShift Chemiluminescent EMSA Kit (Thermo), manufacturer's instructions; buffer, salt, pH and temperature not stated
GhWRKY27 [3] = biological target: T1, GhWRKY27; test: competition; excess unlabelled mutant vs labelled N1; LightShift Chemiluminescent EMSA Kit (Thermo), manufacturer's instructions; buffer, salt, pH and temperature not stated

T1 sequence (A0A068LI73 entry or part of it): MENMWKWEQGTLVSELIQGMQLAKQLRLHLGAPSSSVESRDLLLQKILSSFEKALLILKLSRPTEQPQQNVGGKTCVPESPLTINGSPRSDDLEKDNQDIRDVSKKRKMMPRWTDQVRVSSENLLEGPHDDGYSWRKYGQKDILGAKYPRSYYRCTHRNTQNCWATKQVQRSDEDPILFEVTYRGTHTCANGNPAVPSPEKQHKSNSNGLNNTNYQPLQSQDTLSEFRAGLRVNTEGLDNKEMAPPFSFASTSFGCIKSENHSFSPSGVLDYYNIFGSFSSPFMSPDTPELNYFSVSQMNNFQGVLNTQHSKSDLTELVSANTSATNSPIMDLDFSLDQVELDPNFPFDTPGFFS

B1: GhRipen2-2 wild probe (dsDNA)
DNA 1: CTGGGCTCAGGTCAGAAAAGCTTTACTCGGGGCTTGACTCGTTTTCTAA
DNA 2: TTAGAAAACGAGTCAAGCCCCGAGTAAAGCTTTTCTGACCTGAGCCCAG
GhWRKY27 [1]
  binding result: binds

B2: GhCYP94C1 wild probe (dsDNA)
DNA 1: CCAGCTCCTCGCGAAAAGAAAAATGACTAAAAAAATATTTAATTCTTAGT
DNA 2: ACTAAGAATTAAATATTTTTTTAGTCATTTTTCTTTTCGCGAGGAGCTGG
GhWRKY27 [2]
  binding result: binds

B3: GhCYP94C1 mutant probe (dsDNA)
DNA 1: CCAGCTCCTCGCGAAAAGAAAAATGAAAAAAAAAATATTTAATTCTTAGT
DNA 2: ACTAAGAATTAAATATTTTTTTTTTCATTTTTCTTTTCGCGAGGAGCTGG
GhWRKY27 [3]
  binding result: no binding
